The values that follow come from patent US20100184651A1, “TARGETED FUSION PROTEINS FOR CANCER THERAPY” (Dabur Pharma Limited, priority 2005, published 2010).

In series [1] the target is T1, VPAC 1 receptors expressed on A549 cells (Homo sapiens, UniProt P32241).
T1 construct: the receptors were overexpressed in the A549 cell line; endogenous in cells; host or cells: A549 human lung carcinoma cells (acetone-fixed on slides)
T1 sequence (P32241 31-457): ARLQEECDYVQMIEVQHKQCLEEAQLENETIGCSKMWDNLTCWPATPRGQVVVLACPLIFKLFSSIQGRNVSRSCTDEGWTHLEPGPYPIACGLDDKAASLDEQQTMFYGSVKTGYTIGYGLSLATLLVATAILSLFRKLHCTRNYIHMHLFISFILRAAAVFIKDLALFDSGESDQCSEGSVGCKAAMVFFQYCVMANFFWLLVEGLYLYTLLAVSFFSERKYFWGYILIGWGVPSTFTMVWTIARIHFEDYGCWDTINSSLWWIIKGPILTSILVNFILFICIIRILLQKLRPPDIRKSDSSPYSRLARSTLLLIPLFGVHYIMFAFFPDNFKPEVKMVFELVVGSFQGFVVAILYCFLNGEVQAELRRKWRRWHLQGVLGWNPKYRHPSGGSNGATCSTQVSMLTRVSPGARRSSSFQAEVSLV
As to the kind of experiment: Immunocytochemical staining for cell surface receptors on A549 cells. Type of series: binding. To be noted: A549 cells pre-treated, then anti-VPAC-1 immunostaining. The procedure:
Similarly, when, the cells were treated with fusion protein and immuno-stained with anti-BID. […] A similar observation was made when A549 cells were pre-treated with VIP antagonist, VIP (10-28) followed by fusion protein and immunostaining with anti-BID (FIG. 15e).
Cultured (A549 human lung carcinoma) cells were detached with trypsin/EDTA and pelleted by low-speed centrifugation. The cells were resuspended in PBS. Cell suspensions were coated onto poly-L-lysine coated glass slides, dried and then fixed for 10 min in acetone at −20° C. After drying for 2 h, slides were rinsed in PBS and then treated for 5 min with water/H2O2 in order to block endogenous peroxidase. Slides were again rinsed again in PBS and treated with normal rabbit and goat serum to block background staining. Slides were then incubated with antagonist, VIP(10-28) and/or fusion protein for 1 hr each. Slides were again washed with PBS and incubated with rabbit-anti-BID antibody (dilution 1:1000) or goat anti-VPAC 1 antibody (dilution 1:1000) for 1 h. Slides were again washed in PBS and incubated with […] IgG peroxidase labelled antibodies for anti-BID and anti-VPAC 1 primary antibodies respectively, for 1 h followed by addition of the 3,3′-diaminobenzidine-tetrachloride (DAB) substrate and hydrogen peroxide in PBS. […]

The next series has as its target T2, VPAC-1 receptors (Homo sapiens, UniProt P32241).
T2 construct: endogenous in cells; host or cells: HT29 colon carcinoma cells
T2 sequence (P32241 31-457): T1 sequence (P32241 31-457)
The series can be described thus: Receptor targeting: competition with VIP (10-28) antagonist, MTT assay in HT29 cells. Type of series: cell-based. Particulars: 24 h. As for the experimental part:
To further confirm the receptor mediated targeting of the protein, HT29 cells were pre-incubated with varying concentrations of VIP antagonist, VIP (10-28) peptide [Gozes I., et al., Cell Mol. Neurobiol., 1995, 15, 675] for 30 minutes followed by treatment with 10 μM of fusion protein. […] Similar, observation was made when the cells were treated with 5 μM of fusion protein, although this time the receptors were saturated by 25 μM concentration of the antagonist (FIG. 14b).
Cells were seeded in 96-well microplates, followed by the addition of various concentrations of the VIP antagonist VIP (10-28) Fragment for 30 minutes, followed by the addition of fusion protein at a fixed concentration. VIP (10-28) Fragment was allowed to remain in culture wells for whole of the experiment. After a 24-hour incubation, the MTT assay was performed as above.
Background: Tetrazolium assays rely on reduction of a dye to a coloured formazan, in cell work by metabolically active cells.

With “VIP (10-28) peptide: VIP antagonist, VIP (10-28) peptide (YTRLRKQMAVKKYLNSILN)”, in series [1], the “availability of VPAC-1 receptors to anti VPAC-1 after pre-treatment” value is listed as “significant loss in the immunostained cell population”. The “concentration of antagonist giving complete loss of cytotoxicity of fusion protein” value in the series with VPAC-1 receptors (HT29 pre-incubated 30 minutes with antagonist, then 10 μM of fusion protein) was found to be 100 µM. For the same substance, the “concentration of antagonist at which the receptors were saturated (loss of cytotoxicity)” value with VPAC-1 receptors (HT29 pre-incubated with antagonist, then 5 μM of fusion protein) is 25 µM.
